Source: patent US20230050148A1 (SCHOLAR ROCK, published 2023)
Where a chain is given by its changes, count along the chain named.

T1: Cyno (cynomolgus monkey)
T1 chain: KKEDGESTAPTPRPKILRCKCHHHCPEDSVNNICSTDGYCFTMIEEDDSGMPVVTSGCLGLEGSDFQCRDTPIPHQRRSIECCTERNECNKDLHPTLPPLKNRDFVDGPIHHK

B1: Ab4 (antibody, V domains shown)
VH: EVQLVESGGGLVQPGGSLRLSCAASGFTFSSYSMNWVRQAPGKGLEWVSYISSSSSTIYYADSVKGRFTISRDNAKNSLYLQMNSLRAEDTAVYYCARGVLDYGDMLDPWGQGTLVTVSS
VL: DIQMTQSPSSLSASVGDRVTITCQASQDITNYLNWYQQKPGKAPKLLIYDASNLETGVPSRFSGSGSGTDFTFTISSLQPEDIATYYCQQADNHPPWTFGGGTKVEIK
B2: Ab5 (antibody, V domains shown)
VH: B1 VH with Y32F, N35D, S53P, S54D, S55A
VL: B1 VL
B3: Ab6 (antibody, V domains shown)
VH: B1 VH with A23T, Y32F, N35D, S53P, S55A, S56D, S78T, D108M
VL: DIQMTQSPSSLSASVGDRVTITCQASQDITNYLNWYQQKPGKAPKLLIYDASNLETGVPSRFSGSGSGTDFTFTISSLQPEDIATYYCQQADNHPPWTFGGGTKVEIKR
B4: Ab29 (antibody, V domains shown)
VH: B1 VH with G16R, Y32F, S33A, S53P, S54D, S55A, D62G, A97V, G99A
VL: B1 VL
B5: Ab25 (antibody, V domains shown)
VH: B1 VH with S30G, Y32F, N35D, S53P, S54D, S55A
VL: B1 VL
B6: Ab6 Fab (Fab, V domains shown)
VH: B1 VH with A23T, Y32F, N35D, S53P, S55A, S56D, S78T, D108M
VL: B1 VL
notes: also called Fab fragment of Ab6
B7: Ab23 (antibody, V domains shown)
VH: B1 VH with Y32F, S53P, S55A, S56D, S78T
VL: B1 VL
B8: Ab26 (antibody, V domains shown)
VH: B1 VH with Y32F, N35D, S53P, S54D, S55A, S78T
VL: B1 VL
B9: Ab33 (antibody, V domains shown)
VH: B1 VH with Y32F, S53P, S55A, S56D, S78T, R98H
VL: B1 VL
B10: Ab21 (antibody, V domains shown)
VH: B1 VH with Y32F, N35D, S53P, S54D, S55A
VL: B1 VL

Legend:
[1] = molecular target: hGARP-proTGFβ1 in the cell-based potency assay (human, UniProt P01137 30-390; Q14392 20-662); assay: cell-based or functional assay
[2] = molecular target: hLTBP1-proTGFβ1 in the cell-based potency assay (human, UniProt P01137 30-390; Q14766 347-1721); assay: cell-based or functional assay
[3] = molecular target: hLTBP3-proTGFβ1 in the cell-based potency assay (human, UniProt P01137 30-390; Q9NS15 44-1303); assay: cell-based or functional assay
[4] = molecular target: hLRRC33-proTGFβ1 in the cell-based potency assay (human, UniProt P01137 30-390; Q86YC3 19-651); assay: cell-based or functional assay
[5] = molecular target: T1, Cyno; assay: cell-based or functional assay
[6] = molecular target: Rat (rat); assay: cell-based or functional assay
[7] = molecular target: Human (human); assay: cell-based or functional assay
[8] = molecular target: LTBP:proTGFβ1 (human); assay: cell-based or functional assay
[9] = molecular target: T2, recombinant human GARP-proTGFβ1 complex (human, UniProt P01137 30-390; Q14392 20-627); assay: SPR (Biacore 8K), biotinylated antigen on Biotin CAP chip, Fab 0.62-10 nM, 1:1 fit
T2 construct: C-terminally His-tagged GARP ectodomain (sGARP) in complex with latent TGFβ1; also called hGARP-proTGFβ1; hGARP

[10] = molecular target: T3, recombinant human LTBP3-proTGFβ1 complex (human, UniProt Q9NS15 866-1039); assay: as above
T3 construct: range 866-1039; Purified large latent complex; also called hLTBP3-proTGFβ1; hLTBP3

[11] = molecular target: T4, recombinant human LRRC33-proTGFβ1 complex (human, UniProt P01137 30-390; Q86YC3 19-650); assay: as above
T4 construct: C-terminally His-tagged LRRC33 ectodomain (sLRRC33); also called hLRRC33-proTGFβ1; hLRRC33

[12] = molecular target: T5, recombinant human LTBP1-proTGFβ1 complex (human, UniProt Q14766 873-1507); assay: as above
T5 construct: range 873-1507; Purified large latent complex (proTGFβ1 dimer disulfide-linked to one presenting molecule); biotinylated in BLI, MSD-SET and SPR assays; also called hLTBP1-proTGFβ1; hLTBP1
T5 sequence (chain, as listed by the source limits assumed, chain 1 of 2): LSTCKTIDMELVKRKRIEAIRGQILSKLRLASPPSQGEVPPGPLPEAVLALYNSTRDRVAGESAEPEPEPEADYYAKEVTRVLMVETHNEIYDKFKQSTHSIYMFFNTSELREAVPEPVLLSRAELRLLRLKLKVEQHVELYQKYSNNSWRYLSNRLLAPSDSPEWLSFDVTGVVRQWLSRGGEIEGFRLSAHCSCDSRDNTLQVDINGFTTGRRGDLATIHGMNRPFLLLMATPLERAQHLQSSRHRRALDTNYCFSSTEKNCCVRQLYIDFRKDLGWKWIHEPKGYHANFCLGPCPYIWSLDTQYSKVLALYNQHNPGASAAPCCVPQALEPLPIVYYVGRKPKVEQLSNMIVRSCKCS
T5 sequence (Q14766 873-1507 limits assumed, chain 2 of 2): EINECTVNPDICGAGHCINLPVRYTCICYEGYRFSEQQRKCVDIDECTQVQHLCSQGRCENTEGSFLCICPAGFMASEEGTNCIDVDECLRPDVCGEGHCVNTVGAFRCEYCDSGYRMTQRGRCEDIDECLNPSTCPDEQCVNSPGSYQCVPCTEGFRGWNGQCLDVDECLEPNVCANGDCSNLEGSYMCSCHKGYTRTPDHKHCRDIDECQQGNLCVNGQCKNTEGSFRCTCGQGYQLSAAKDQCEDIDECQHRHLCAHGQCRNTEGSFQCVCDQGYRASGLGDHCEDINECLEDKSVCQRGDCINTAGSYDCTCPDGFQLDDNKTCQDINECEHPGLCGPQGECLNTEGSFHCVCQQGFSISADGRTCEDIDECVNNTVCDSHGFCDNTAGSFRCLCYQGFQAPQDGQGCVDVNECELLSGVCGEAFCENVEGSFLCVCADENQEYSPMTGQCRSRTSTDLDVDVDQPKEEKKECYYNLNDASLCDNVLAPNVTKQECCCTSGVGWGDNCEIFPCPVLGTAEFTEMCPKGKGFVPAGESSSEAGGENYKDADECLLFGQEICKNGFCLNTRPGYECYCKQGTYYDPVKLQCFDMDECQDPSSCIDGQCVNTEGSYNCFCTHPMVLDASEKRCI

T4 sequence (P01137 30-390 limits assumed, chain 1 of 2): as the sequence (chain, as listed by the source limits assumed, chain 1 of 2) above
T4 sequence (Q86YC3 other isoform, or with tags, fused parts or gaps limits assumed, chain 2 of 2): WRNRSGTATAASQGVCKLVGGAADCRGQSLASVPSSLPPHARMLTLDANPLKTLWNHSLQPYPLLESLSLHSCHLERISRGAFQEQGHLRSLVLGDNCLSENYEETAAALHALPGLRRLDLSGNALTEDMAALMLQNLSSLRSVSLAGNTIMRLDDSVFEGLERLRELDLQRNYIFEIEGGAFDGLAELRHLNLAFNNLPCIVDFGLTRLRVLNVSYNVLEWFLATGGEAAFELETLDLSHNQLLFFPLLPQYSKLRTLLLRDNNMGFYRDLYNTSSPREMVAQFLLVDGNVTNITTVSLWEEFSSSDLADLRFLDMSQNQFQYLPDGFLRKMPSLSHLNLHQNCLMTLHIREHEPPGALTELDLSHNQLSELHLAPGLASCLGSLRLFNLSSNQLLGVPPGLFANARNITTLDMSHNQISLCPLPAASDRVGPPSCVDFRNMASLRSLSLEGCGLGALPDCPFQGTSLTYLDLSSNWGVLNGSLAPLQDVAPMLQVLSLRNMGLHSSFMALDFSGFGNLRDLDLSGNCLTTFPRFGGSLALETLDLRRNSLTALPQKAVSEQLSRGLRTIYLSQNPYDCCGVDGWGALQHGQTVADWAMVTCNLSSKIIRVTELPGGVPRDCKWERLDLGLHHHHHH
Sequence of hLTBP1-proTGFβ1 in the cell-based potency assay (P01137 30-390 limits assumed, chain 1 of 2): as the sequence (chain, as listed by the source limits assumed, chain 1 of 2) above
Sequence of hLTBP1-proTGFβ1 in the cell-based potency assay (Q14766 347-1721 limits assumed, chain 2 of 2): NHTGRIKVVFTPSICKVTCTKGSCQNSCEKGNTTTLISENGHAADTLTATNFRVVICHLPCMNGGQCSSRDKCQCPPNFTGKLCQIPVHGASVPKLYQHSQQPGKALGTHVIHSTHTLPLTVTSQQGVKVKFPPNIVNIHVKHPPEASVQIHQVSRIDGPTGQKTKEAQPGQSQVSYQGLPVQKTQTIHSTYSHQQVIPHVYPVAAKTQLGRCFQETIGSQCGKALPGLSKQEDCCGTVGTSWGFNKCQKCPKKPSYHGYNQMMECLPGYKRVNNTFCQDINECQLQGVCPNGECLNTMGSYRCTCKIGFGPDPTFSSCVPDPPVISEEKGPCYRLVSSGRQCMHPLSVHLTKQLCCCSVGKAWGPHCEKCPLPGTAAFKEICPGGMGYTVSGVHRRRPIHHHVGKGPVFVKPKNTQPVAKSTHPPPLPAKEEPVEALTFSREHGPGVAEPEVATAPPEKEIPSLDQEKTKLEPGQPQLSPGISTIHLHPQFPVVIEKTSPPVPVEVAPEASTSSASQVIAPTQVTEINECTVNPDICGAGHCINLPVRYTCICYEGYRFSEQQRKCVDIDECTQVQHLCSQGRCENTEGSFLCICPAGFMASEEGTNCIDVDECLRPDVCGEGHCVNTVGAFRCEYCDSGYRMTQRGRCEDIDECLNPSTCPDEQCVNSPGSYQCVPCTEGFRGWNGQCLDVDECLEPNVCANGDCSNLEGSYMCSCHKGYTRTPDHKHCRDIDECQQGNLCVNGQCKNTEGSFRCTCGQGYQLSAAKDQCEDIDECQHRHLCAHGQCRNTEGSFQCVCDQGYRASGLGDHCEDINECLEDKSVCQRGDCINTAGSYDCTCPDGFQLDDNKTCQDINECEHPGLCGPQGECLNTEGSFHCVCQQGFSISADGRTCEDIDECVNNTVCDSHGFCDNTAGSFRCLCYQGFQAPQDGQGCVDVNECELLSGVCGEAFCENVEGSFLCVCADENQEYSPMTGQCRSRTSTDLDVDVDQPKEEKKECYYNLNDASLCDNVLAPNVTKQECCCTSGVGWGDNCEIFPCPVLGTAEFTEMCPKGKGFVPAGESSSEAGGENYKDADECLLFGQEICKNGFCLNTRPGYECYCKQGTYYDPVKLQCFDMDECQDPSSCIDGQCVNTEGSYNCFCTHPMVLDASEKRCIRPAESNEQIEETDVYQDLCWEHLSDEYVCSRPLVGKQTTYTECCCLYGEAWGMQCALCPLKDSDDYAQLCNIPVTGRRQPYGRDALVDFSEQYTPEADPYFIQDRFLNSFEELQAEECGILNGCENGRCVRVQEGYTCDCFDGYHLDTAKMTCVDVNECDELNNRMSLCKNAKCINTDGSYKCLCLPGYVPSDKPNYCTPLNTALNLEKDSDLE
Sequence of hLRRC33-proTGFβ1 in the cell-based potency assay (P01137 30-390 limits assumed, chain 1 of 2): as the sequence (chain, as listed by the source limits assumed, chain 1 of 2) above
Sequence of hLRRC33-proTGFβ1 in the cell-based potency assay (Q86YC3 other isoform, or with tags, fused parts or gaps limits assumed, chain 2 of 2): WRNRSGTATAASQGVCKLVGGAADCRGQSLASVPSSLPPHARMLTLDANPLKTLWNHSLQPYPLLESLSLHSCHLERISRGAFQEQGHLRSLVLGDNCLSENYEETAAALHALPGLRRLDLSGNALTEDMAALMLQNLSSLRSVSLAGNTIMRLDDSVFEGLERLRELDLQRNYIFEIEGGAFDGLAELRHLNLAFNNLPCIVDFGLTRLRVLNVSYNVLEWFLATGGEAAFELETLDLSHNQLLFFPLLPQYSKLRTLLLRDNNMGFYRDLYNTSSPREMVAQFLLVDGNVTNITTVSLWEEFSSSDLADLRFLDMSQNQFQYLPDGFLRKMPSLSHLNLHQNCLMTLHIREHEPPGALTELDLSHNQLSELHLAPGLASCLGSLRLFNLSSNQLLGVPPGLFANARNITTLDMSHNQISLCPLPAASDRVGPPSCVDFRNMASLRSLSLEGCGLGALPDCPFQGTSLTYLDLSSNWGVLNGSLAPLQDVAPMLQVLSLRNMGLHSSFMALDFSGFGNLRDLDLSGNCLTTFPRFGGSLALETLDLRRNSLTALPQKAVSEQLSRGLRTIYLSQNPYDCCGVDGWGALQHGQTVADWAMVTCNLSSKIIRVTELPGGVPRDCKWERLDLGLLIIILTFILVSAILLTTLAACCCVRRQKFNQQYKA

Binder	IC50, reporter cell assay of TGFβ1 activation [1] [nM]	IC50, reporter cell assay of TGFβ1 activation [2] [nM]	IC50, reporter cell assay of TGFβ1 activation [3] [nM]	IC50, reporter cell assay of TGFβ1 activation [4] [nM]	further results
B1	0.8	5.2	5.6	–	–
B2	0.1	1.3	–	0.6	–
B3	–	–	–	–	IC50 (inhibition of latent TGFβ1 activation, LN229 transfectants with CAGA12 reporter cells) [5]: 1.02 nM; IC50 (inhibition of latent TGFβ1 activation, LN229 transfectants with CAGA12 reporter cells) [6]: 1.11 nM; IC50 (inhibition of latent TGFβ1 activation, LN229 transfectants with CAGA12 reporter cells) [7]: 1.07 nM; IC50 (read off the curve); percent TGFβ activity, LN229 / CAGA12 luciferase reporter co-culture [8]: ~1 nM
B4	0.3	0.5	0.8	0.5	–
B5	0.4	6.1	0.51	0.7	–
B6	–	–	–	–	Kd [9]: 0.104 nM; koff [9]: 0.000218 s⁻¹; kon [9]: 2.1e+06 M⁻¹ s⁻¹; Kd [10]: 0.488 nM; koff [10]: 0.000831 s⁻¹; kon [10]: 1.7e+06 M⁻¹ s⁻¹; Kd [11]: 0.145 nM; koff [11]: 0.000123 s⁻¹; kon [11]: 845000 M⁻¹ s⁻¹; Kd [12]: 0.124 nM; koff [12]: 0.000255 s⁻¹; kon [12]: 2.05e+06 M⁻¹ s⁻¹
B7	0.3	0.8	0.9	0.6	–
B8	0.3	0.7	0.7	0.3	–
B9	0.2	1.6	1.1	0.7	–
B10	0.4	1.6	0.8	0.6	–
